Results reported in the DeepSol protein solubility set.

Test: soluble on expression in E. coli; label from the status in PepcDB or PDB records

Row | Sequence | soluble on expression in E. coli
1 | MGHHHHHHSSGLVPRGSATERQDRNLLYEHAREGYSALPLLDMESLCAYPEDAARALDLRKGELRSKDLPGIISTWQELRQLREQIRSLEEEKEAVTEAVRALVVNQDNSQVQQDPQYQSLRARGREIRKQLTLLYPKEAQLEEQFYLRALRLPNQTHPDVPVGDESQARVLHVVGDKPAFSFQPRGHLEIAEKLDIIRQKRLSHVSGHRSYYLRGAGALLQHGLVNFTLNKLIHRGFTPMTVPDLLRGVVFEGCGMTPNAKPSQIYNIDPSRFEDLNLAGTAEVGLAGYFMDHSVAFRDLPIRMVCSSTCYRAETDTGKEPWGLYRVHHFTKVEMFGVTGPGLEQSSELLEEFLSLQMEILTELGLHFRVLDMPTQELGLPAYRKFDIEAWMPGRGRFGEVTSASNCTDFQSRRLHIMFQTEAGELQFAHTVNATGCAVPRLLIALLESYQQKDGSVLVPPALQPYLGTDRITTPTHVPLQYIGPNQPQKPRLPGQPASS | soluble
2 | MGICVSFRREDSNSSPTVKIVTVNGDLREYNVPVIASQVLEAESAAAYSSSSSSRPSSYFICDSDSLYYDDFIPAIKSEEPLQADQIYFVLPISKRQSRLTASDMAALAVKASVAIQNSVKKESRRRKKVRISPVMMLTGSNDSVNGNGSETTVKKGRPFVSKTAPVKASSGINRSGSVRNLRRYTSKRAKLAVRSFRLKLSTIYEGSVV | not soluble
3 | MGIFSERLKEAMQQANITSAQLSKQTGIGRSSISQWLSNKYVAKHDKVTALAAVLNVSPDWLLGTTDVATAVSPEAVPIPVSVTPTPAVDPELITLWEQLDTKQRSKLIKKARKLLTKSAEQPNTKRKKNKKKKKGKKRK | not soluble
4 | MGILFMSKVGLRGDRRSEGDEVLDPLRQALDSSMQSHNLYQHPQHLAFHVSAPVASTVQQASGLLGPLPHLSSFALQPAHSLLPPLGSHGAGFQENGAKAES | not soluble
5 | MGILFTRIWRLFNHQEHKVIIVGLDNAGKTTILYQFSMNEVVHTSPTIGSNVEEIVINNTRFLMWDIGGQESLRSSWNTYYTNTEFVIVVVDSTDRERISVTREELYKMLAHEDLRKAGLLIFANKQDVKECMTVAEISQFLKLTSIKDHQWHIQACCALTGEGLCQGLEWMMSRLKIRLEHHHHHH | soluble
6 | MGILKSLFTLGKSFVAQAEEAIDEAQGVRMLEQHIRDAKAELDKAGKSRVDLLARVKLSHDKLNDLRERKASLETRALAAMSKNVDAALLNEVAEEIARLENAILAEEQVLTNLEASRDAVEKAVTATGQRIAQFEQQLEVVKATEAMQRAQQAVTTSTVGAASNVSTAAESLKRLQTRQAERQARLDAAAQLEKVADGRDLDEKLAQAGIGATNKSNAQGVLARLQRQQGELEHHHHHH | not soluble
7 | MGINERLRHVIEAQKMTIKGFAETVDIPLRSVHNYLSGEREPSADALTKISNKLNINLNWLLLDQGEMYLNQSSDLTLNADEMNLLTQYRQTHDSGKRILQATSKIILDELK | not soluble
8 | MGIVSAASLIKVINEKQLKMAQDQNPLTALPGNRAIGGFIADSCSDGDETRFFCYCDFDNFKPFNDKYGFNAGDHAITLFSALMRRYFFAGDCFLGHIGGDDFFIGVRDWSVEELMEILERLLSDFHDDVAGLYSDEDRAAGCMKGQDRNGLEHHHHHH | soluble
9 | MGKEERAKWVNDEYAKAYEKMKSYGEQVKKADKPRVLYLKRSDLTLQGNDNFIKESMELAGADNIAAEAKSITMEEILKLDPEIILLSDFDKFLPQDLYENRIEGQDWSSVSAVVNKRVYKTPVGIYRWDAPGVETPLMMFWLGKMLQPEILEHHHHHH | not soluble
10 | MGKFSKIKKVQEEESAHQKMEWEAAGAKDSSSDDSSDESDNDDQPKQATEETRKRAELWTNRERVLVLCSRGADVRTRYLMKDIKDLLPHAKGDSKLDQQKSLNVLNEIAEMKNCTKVMYFESRKRKDTYLWMSNVEKGPSIKFLVHNVHTMKELKMSGNCLRASRPVLSFDDAFDKKPQLKLIKAVLMQTLGTPHHHPRSQPFVDHVFNFSVGEGDKIWFRNFQIVDESLQLQEVGPRFVLEMVRLFAGSFEGAVLYDNPNYVSPNVIRREHRKGQHSYIEKQLAVKASNIKQAKVTEILAEKTVDLVGKEFDTQNNAAADSEAAAQITAQIEKRRVRKKKSQASKYTGSD | soluble
11 | MGKILVLSDIHYPYCDIDEINKIMLSERPSLTVLLGDIIVSKSEDYRNFIDKLKIRKNIIYVKGDEDKFRGDFDLIKIKNNGKRFILLHGHQYFNENNEYSLAKVLKKMNDNIPPLLFCIFFRIMLRNFKDTIILGHSHAL | soluble
12 | MGKISIVGLGPGDYSLISQGVLESLINSPKVFFRTEKHPIIDKLKETIQYTSLDYFYEKEENFDNVYLKISEFIIEESAKGDLVYAVPGHPRVAEKTVSIIERLANEKHIAVEILPSMSFVDAMFNYLAIDPSEGFKLVDAFEIENSYIDLDTSMIITQVYDKFIASNVKLKLMEHYDYNQEVCIVNGAGVKDLESKKFIKLCELDRNENFFDYLTSLYIPKSSKKMYNTVHDLEIIVNTLRSPSGCEWDKKQTHQSLKNSVIEEAYELCNAIDNNDIDEMVEELGDVLLQVIFHCQIGNEEGYFDLKEVVNGICKKLIHRHPHIFSGAKLDMSKFEKTWEELKKEEKGESTITDGLRRIPKHLPALMKASKVQHKAALVGFDWDNVEDVFKKIEEEYQELLDEHRVGNIKYIKEELGDLLFSIVNLARFLDIDSGEALNCTTEKFINRFDFIEKSAMNLNKKLEDMTLEEMDEFWNQAKKQ | not soluble
13 | MGKKDKRSKLEGDDLAEAQQKGSFQLPSSNETAKLDASQWPLLLKNYDKLNVRTNHYTPHVEGVSPLKRDIKNYISSGFFNLDKPSNPSSHEVVSWIKRILRCEKTGHSGTLDPKVSGCLIVCIDRTTRLAKSQQGAGKEYICIFKLHEEVEDDRKVKQALEKLTGALFQRPPLISAVKRQLRIRTVYENKFIEYDPAQQMGIFNCICESGTYVRTICVHLGLILGCGGQMQELRRNRSGICDENENMVTMHDVLDAQYLLDTQKDESYMRHIVRPLEALLTQHKRVVVKDSCINAICYGAKILIPGILRYDDDIEVGKEIVIMSTKGEAICIAIAQMNTSTIASVDHGVVAKSKRVIMERDVYGRKWGLGPVASKKKQMVKDGLLDKFGKPNDTTPKSWAKEYVQTSTKKEVKKEETPDEEEEEAPKKKSKKSKKQESSDSDSD | not soluble
14 | MGKMAAAVGSVATLATEPGEDAFRKLFRFYRQSRPGTADLEGVIDFSAAHAARGKGPGAQKVIKSQLNVSSVSEQNAYRAGLQPVSKWQAYGLKGYPGFIFIPNPFLPGYQWHWVKQCLKLYSQKPNVCNLDKHMSKEETQDLWEQSKEFLRYKEATKRRPRSLLEKLRWVTVGYHYNWDSKKYSADHYTPFPSDLGFLSEQVAAACGFEDFRAEAGILNYYRLDSTLGIHVDRSELDHSKPLLSFSFGQSAIFLLGGLQRDEAPTAMFMHSGDIMIMSGFSRLLNHAVPRVLPNPEGEGLPHCLEAPLPAVLPRDSMVEPCSMEDWQVCASYLKTARVNMTVRQVLATDQNFPLEPIEDEKRDISTEGFCHLDDQNSEVKRARINPHS | not soluble
15 | MGKPMQVSRYWRHFREKYRLIGGKCENGHLLFPKRPICPICGSRNIEEFQFSGKGKVITWTIVRNPPSGFEYYKPYPLALVQLEEGPVVLAQLTDVEPEEIKEGMEVEMVTRKIREFDEDGLILYGYKFRPIIKSELEHHHHHH | soluble
16 | MGKPTGFMEYKRETPPKKDPFERSKNWQEFTLLMPESALRQQGARCMDCGVPFCQTGTSMDGSGEIGCPVYNLIPEWNDLVYRGHWKEALERLHKTNNFPEFTGRVCPAPCEGSCTVAISDDAVAIKSMEFHIVERGFQEGWIVPNPPRSRTGKKVAVVGSGPAGLAAAAQLNKAGHWVTVFEREDRIGGLLTYGIPDVKLPYHVVERRINLLKEEGIEFRTNVEIGKDVSAKQLKDDFDAVVLCTGATKPRDVNVKGRELKGIHFAMDFLTANTKSLLNSNHQDGNYISAKGKHVVVIGGGDTGADCITTSVRHGAKSITQFDINREKSNERPDNNPWPLFPIVHTVEDGHKEAAAVYGKDPRAYQVMTTKFVGDAEGHVKEIHTISVETTVHPDGSKTRVEIPGTEKVWPADLVFLAVGFTGPEEQLVRELELETDTRSNIKAEYGKYETSLEGVFAAGDNRRGQSLVVWAIHEGREAARECDKYLMGASNLPLEHHHHHH | soluble
17 | MGKRVVYPGTFDPPHYGHLDIVKRSARIFDEVVVAVAKKPRKFLLFDAEERVKMFEKMVEDIPNVEVKMFDCLLVDFMKREGINVIVRGVRLFTDFEYELQIALTNYKLAGVETVFMMPSQEYIHISSTIVRDVASYCGDLDNMVHPYVKQKLREKFNCGS | soluble
18 | MGKTIAEKIFASHLVDEPFAGTKVLRLDVVMCHEITTPIAIADLMARGKDRVFDPTKIKAVIDHVTPSKDSKTATQAKMLRDWARRHGIVDFFDVGANGVCHALFPEKGFIRPGYTVIMGDSHTCTHGAFGAFAAGIGTTDLEVGILKGVCAFREPKT | not soluble
19 | MGKTSQRKQCDCENPSKPCLSTSIPLRMSSYTFKRPVTKITSHLGNEVRYYQWEETFKKPEQACWQKRLQGLQAYSSAGELLSTSDLAKTLKDLTSTDTVASASDTQATSIDITSVPTLESSSHLANMIPEAGPQILCKEFLVTEQDIINQERKVKIARERLAVALIAHKLASEMETVRGSRKANL | not soluble
20 | MGLCVSKGSTASSPQHYAVRYTEQVTPSPSPSVASTSPSLHDSTAIGSPLARRSVLLPHEVQQAAYQLAMRLNGRAIEDASDRKRLVDATATVHETRLALHRGRGKVDSDLRLSNGRSATYSSLSYCLGEDDENLLAGSALAAGAGNCDHNAAINTRRHAVRMEDGGQMMTVRDYEQTHLYALYQPPNSAEADESTVVLDSWGDGPAVLLRDSHWAESYGTSTHVIERFDKPDATDALARTNAFRAEIENPQTALHANARELETAFLANPAPGDIFSAMPVIAPHLAESTRRRLQECSPRTRNVLAADAARDAYGLDDAQANSPRTTKAILKEAKRLDALGRPPLSW | not soluble
21 | MGLCVSKPSVAGSPEHYAAHVAEQATPSEEGSGTPAQATSSYSATDPALQGLARRGKKVDLSRSGLPERVALKTKLLANSLSDAKDAGVRSSIVKYGERTLKMLAANKQPDEALLKLDIKNLPALASVYNRRYPGLNIQHFDSPIDFLQSLSEQTTSVVSQRAVLRLERDGEHHVAADVRRRPNGEASVIVLEPARLLTFVTGHTQLRRQALSQLGENAKFAFIQVGAQKSAADCLMFDLHFALHAHQHSSLFDQWHDNMVNHGTIDPYGQGAASPDALLEDAGVELMLGEQMLPAIFYKHTHSSGVVEEVDRSQPGSAYTDVSTSGRQQQHESLEQRVQAFRVDRGYSASIETSRATKIRSALETAISDRQS | not soluble
22 | MGLFNNFKFKYTRAQLEIFRFSFCLLAPVAVMYYIGTDTDKKLNVPGFWPDPATLNQIPKEPYEIKAELARMKKERLEKRLRLEKKIQEEFGLDLEEEKEKIKRDLALKKG | soluble
23 | MGLGRQSLNIMTFSGQELTAIIKMAKSMVMADGKIKPAEIAVMTREFMRFGILQDQVDLLLKASDSIEASQAVALIARMDEERKKYVASYLGVIMASDGDIDDNELALWTLISTLCGLPTMTVMEAINNMKNL | soluble
24 | MGLIFAKLWSLFCNQEHKVIIVGLDNAGKTTILYQFLMNEVVHTSPTIGSNVEEIVVKNTHFLMWDIGGQESLRSSWNTYYSNTEFIILVVDSIDRERLAITKEELYRMLAHEDLRKAAVLIFANKQDMKGCMTAAEISKYLTLSSIKDHPWHIQSCCALTGEGLCQGLEWMTSRIGVR | soluble
25 | MGLREIEKVTVFCLANENTDISYEVNRALGEIRIYVPYDFMDFLALNSVEEKYKEFCKLVRQYVVPGLEENSTLSSSVVKGYIEESLDEIVKQNYEGIFLVGKTPKKSPSRKKIAILKGIHRVKGFQLRCEVYDEKGLKIRDQLLVEEVGNEMVYSRFLGTLKWESENLIVVQSKSSSWKEEIYL | not soluble
